According to PMC6144805:

Molecular target: RecQ-ΔΔC (E. coli RecQ variant lacking both the WH and HRDC domains) (Escherichia coli)

Chain of E. coli ssDNA-binding protein (SSB) (P0AGE0 whole entry): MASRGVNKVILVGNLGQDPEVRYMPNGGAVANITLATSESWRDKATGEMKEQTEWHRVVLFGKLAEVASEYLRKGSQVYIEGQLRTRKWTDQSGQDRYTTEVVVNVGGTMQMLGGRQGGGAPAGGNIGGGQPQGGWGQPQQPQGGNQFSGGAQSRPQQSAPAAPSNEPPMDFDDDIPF

An average unwinding processivity of RecQ-ΔΔC with SSB of 2.5 kb was found for “E. coli ssDNA-binding protein (SSB) (from UniProt P0AGE0 1-178) (natural protein)” in this work.
